Test results: paper PMC10532153, “Interactions of the N- and C-Terminal SH3 Domains of Drosophila Drk with the Proline-Rich Peptides from Sos and Dos” (International Journal of Molecular Sciences, 2023)

Tests used:
[1] = target: T1, C-terminal SH3 domain of Drosophila Drk (Drk-CSH3) (Drosophila, UniProt Q08012 153-211); experiment: NMR titration; 2D 1H-15N HSQC of 15N-labelled Drk-CSH3 (0.3 mM), peptide added stepwise up to protein:peptide 1:8; NMR buffer (20 mM KH2PO4/K2HPO4 pH 7.4, 100 mM KCl, 1 mM DTT, 0.05% NaN3); 25 °C; CSPs fitted to a single-binding model, bootstrap 1000 iterations; details: both partners purified
T1 construct: Downstream receptor kinase (Drk), Drosophila homologue of GRB2, 211 residues; C-terminal SH3 domain; the solution structure PDB 7Y4N is of this domain
T1 sequence (Q08012 153-211): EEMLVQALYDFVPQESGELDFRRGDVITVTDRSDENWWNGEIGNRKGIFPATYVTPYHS

[2] = target: T2, N-terminal SH3 domain of Drosophila Drk (Drk-NSH3) (Drosophila, UniProt Q08012 1-59); experiment: NMR titration; 2D 1H-15N HSQC of 15N-labelled Drk-NSH3 (0.3 mM), peptide added stepwise up to protein:peptide 1:8; 20 mM KH2PO4/K2HPO4 pH 7.4, 100 mM KCl, 1 mM DTT, 0.05% NaN3, 10% D2O; 25 °C; CSPs fitted to a conformational selection model (Kd and Kf), bootstrap 1000 iterations; details: both partners purified
T2 construct: Downstream receptor kinase (Drk), Drosophila homologue of GRB2, 211 residues; N-terminal SH3 domain, residues 1-59; Isolated domain is in equilibrium between a folded and an unfolded state; source: E. coli BL21 (DE3) star, pET-3a, uniformly 15N-labelled, purified (DEAE sepharose, Superdex 75, Resource Q)
T2 sequence (Q08012 1-59): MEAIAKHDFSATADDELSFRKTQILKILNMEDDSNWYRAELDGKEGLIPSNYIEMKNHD

B1: Dos-S2 peptide (Daughter of Sevenless residues 690-702) (peptide)
peptide: GPPSVDRKCKPNA
notes: Daughter of Sevenless (Dos), Drosophila, proline-rich motif PxxxRxxKP in the C-terminal unstructured region, residues 690-702; Thirteen residues; the nine-residue peptide of the earlier study extended by two residues at each end; also called "longer" Dos-S2; source: synthetic peptide, bought: Eurofins Genomics
In the case of B1, the Kd [1] is reported as 250 ± 21.5 µM and the Kd [2] is reported as 242 ± 11.6 µM.
